Data: PMC10786891, “Massively parallel profiling of RNA-targeting CRISPR-Cas13d”

T1: EsCas13d, nuclease-dead (Eubacterium siraeum, UniProt B0MS50, R295A;H300A;R849A;H854A)
T1 sequence: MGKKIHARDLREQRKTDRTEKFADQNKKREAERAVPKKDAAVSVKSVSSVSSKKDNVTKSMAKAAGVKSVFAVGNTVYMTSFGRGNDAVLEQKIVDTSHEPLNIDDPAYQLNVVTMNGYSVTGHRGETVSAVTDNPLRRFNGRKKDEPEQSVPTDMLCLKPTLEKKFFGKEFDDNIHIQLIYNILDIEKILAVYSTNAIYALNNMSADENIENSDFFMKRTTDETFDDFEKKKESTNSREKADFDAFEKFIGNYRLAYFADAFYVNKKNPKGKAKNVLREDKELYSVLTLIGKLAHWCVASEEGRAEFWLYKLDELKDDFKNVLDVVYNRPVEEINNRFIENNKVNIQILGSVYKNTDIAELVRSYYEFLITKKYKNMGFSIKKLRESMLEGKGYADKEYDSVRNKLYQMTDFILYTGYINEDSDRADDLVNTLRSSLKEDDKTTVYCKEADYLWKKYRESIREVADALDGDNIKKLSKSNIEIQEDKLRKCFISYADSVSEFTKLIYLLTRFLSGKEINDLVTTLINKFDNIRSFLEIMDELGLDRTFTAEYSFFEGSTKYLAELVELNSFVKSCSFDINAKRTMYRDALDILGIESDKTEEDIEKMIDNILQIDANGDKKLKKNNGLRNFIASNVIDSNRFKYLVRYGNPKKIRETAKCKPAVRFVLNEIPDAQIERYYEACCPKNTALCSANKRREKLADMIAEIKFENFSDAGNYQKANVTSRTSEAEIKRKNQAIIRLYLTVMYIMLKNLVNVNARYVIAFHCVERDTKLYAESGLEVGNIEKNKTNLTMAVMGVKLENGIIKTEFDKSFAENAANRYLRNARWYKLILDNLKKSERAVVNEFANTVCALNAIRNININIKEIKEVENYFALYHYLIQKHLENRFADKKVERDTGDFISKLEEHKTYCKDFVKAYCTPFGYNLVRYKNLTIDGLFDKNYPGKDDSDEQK

B1: target 1 insU 3' of 21,insG 3' of 21 (mixed)
RNA 1: CACCCGUGCAAAAAUGCAGGGGUCUAAAACUGAGCGGAUAACCUCUCUAUGG
RNA 2: GGGAAUGGAUCCACAUCUACGAAUUCGUACCUGAUAGAGAGGUUAUCCGCUCACCGAGAUCGGAAGAGCACACGU
B2: target 1 insG 3' of 7,insA 3' of 6 (mixed)
RNA 1: CACCCGUGCAAAAAUGCAGGGGUCUAAAACUGAGCGGAUAACCUCUCUAUGG
RNA 2: GGGAAUGGAUCCACAUCUACGAAUUCGUACCAUAGAGAGGUUAUCGCAGCUCACCGAGAUCGGAAGAGCACACGU
B3: target 1 insC 3' of 22,insG 3' of 10 (mixed)
RNA 1: CACCCGUGCAAAAAUGCAGGGGUCUAAAACUGAGCGGAUAACCUCUCUAUGG
RNA 2: GGGAAUGGAUCCACAUCUACGAAUUCGUACCCAUAGAGAGGUUGAUCCGCUCACCGAGAUCGGAAGAGCACACGU
B4: target 1 G12A,C22U (mixed)
RNA 1: CACCCGUGCAAAAAUGCAGGGGUCUAAAACUGAGCGGAUAACCUCUCUAUGG
RNA 2: GGGAAUGGAUCCACAUCUACGAAUUCGUAUCAUAGAGAGAUUAUCCGCUCACCGAGAUCGGAAGAGCACACGU
B5: target 1 A1G,U11A (mixed)
RNA 1: CACCCGUGCAAAAAUGCAGGGGUCUAAAACUGAGCGGAUAACCUCUCUAUGG
RNA 2: GGGAAUGGAUCCACAUCUACGAAUUCGUACCAUAGAGAGGAUAUCCGCUCGCCGAGAUCGGAAGAGCACACGU
B6: target 1 insG 3' of 18,insU 3' of 9 (mixed)
RNA 1: CACCCGUGCAAAAAUGCAGGGGUCUAAAACUGAGCGGAUAACCUCUCUAUGG
RNA 2: GGGAAUGGAUCCACAUCUACGAAUUCGUACCAUAGGAGAGGUUAUUCCGCUCACCGAGAUCGGAAGAGCACACGU
B7: target 1 insU 3' of 12,insG 3' of 8 (mixed)
RNA 1: CACCCGUGCAAAAAUGCAGGGGUCUAAAACUGAGCGGAUAACCUCUCUAUGG
RNA 2: GGGAAUGGAUCCACAUCUACGAAUUCGUACCAUAGAGAGGUUUAUGCCGCUCACCGAGAUCGGAAGAGCACACGU
B8: target 1 insG 3' of 16 (mixed)
RNA 1: CACCCGUGCAAAAAUGCAGGGGUCUAAAACUGAGCGGAUAACCUCUCUAUGG
RNA 2: GGGAAUGGAUCCACAUCUACGAAUUCGUACCAUAGAGGAGGUUAUCCGCUCACCGAGAUCGGAAGAGCACACGU
B9: target 1 insA 3' of 10,insG 3' of 1 (mixed)
RNA 1: CACCCGUGCAAAAAUGCAGGGGUCUAAAACUGAGCGGAUAACCUCUCUAUGG
RNA 2: GGGAAUGGAUCCACAUCUACGAAUUCGUACCAUAGAGAGGUUAAUCCGCUCAGCCGAGAUCGGAAGAGCACACGU
B10: target 1 insA 3' of 10,insC 3' of 1 (mixed)
RNA 1: CACCCGUGCAAAAAUGCAGGGGUCUAAAACUGAGCGGAUAACCUCUCUAUGG
RNA 2: GGGAAUGGAUCCACAUCUACGAAUUCGUACCAUAGAGAGGUUAAUCCGCUCACCCGAGAUCGGAAGAGCACACGU
B11: target 1 G12A,G15C (mixed)
RNA 1: CACCCGUGCAAAAAUGCAGGGGUCUAAAACUGAGCGGAUAACCUCUCUAUGG
RNA 2: GGGAAUGGAUCCACAUCUACGAAUUCGUACCAUAGACAGAUUAUCCGCUCACCGAGAUCGGAAGAGCACACGU
B12: target 1 insG 3' of 7,insA 3' of 4 (mixed)
RNA 1: CACCCGUGCAAAAAUGCAGGGGUCUAAAACUGAGCGGAUAACCUCUCUAUGG
RNA 2: GGGAAUGGAUCCACAUCUACGAAUUCGUACCAUAGAGAGGUUAUCGCGCAUCACCGAGAUCGGAAGAGCACACGU
B13: target 1 insA 3' of 15,insG 3' of 9 (mixed)
RNA 1: CACCCGUGCAAAAAUGCAGGGGUCUAAAACUGAGCGGAUAACCUCUCUAUGG
RNA 2: GGGAAUGGAUCCACAUCUACGAAUUCGUACCAUAGAGAAGGUUAGUCCGCUCACCGAGAUCGGAAGAGCACACGU
B14: target 1 C4A,C6U (mixed)
RNA 1: CACCCGUGCAAAAAUGCAGGGGUCUAAAACUGAGCGGAUAACCUCUCUAUGG
RNA 2: GGGAAUGGAUCCACAUCUACGAAUUCGUACCAUAGAGAGGUUAUCUGAUCACCGAGAUCGGAAGAGCACACGU
B15: target 1 insA 3' of 7,insG 3' of 7 (mixed)
RNA 1: CACCCGUGCAAAAAUGCAGGGGUCUAAAACUGAGCGGAUAACCUCUCUAUGG
RNA 2: GGGAAUGGAUCCACAUCUACGAAUUCGUACCAUAGAGAGGUUAUCAGCGCUCACCGAGAUCGGAAGAGCACACGU
B16: target 1 insA 3' of 10,insU 3' of 1 (mixed)
RNA 1: CACCCGUGCAAAAAUGCAGGGGUCUAAAACUGAGCGGAUAACCUCUCUAUGG
RNA 2: GGGAAUGGAUCCACAUCUACGAAUUCGUACCAUAGAGAGGUUAAUCCGCUCAUCCGAGAUCGGAAGAGCACACGU
B17: target 1 insA 3' of 21,insA 3' of 15 (mixed)
RNA 1: CACCCGUGCAAAAAUGCAGGGGUCUAAAACUGAGCGGAUAACCUCUCUAUGG
RNA 2: GGGAAUGGAUCCACAUCUACGAAUUCGUACCAAUAGAGAAGGUUAUCCGCUCACCGAGAUCGGAAGAGCACACGU
B18: target 1 insC 3' of 16,insC 3' of 13 (mixed)
RNA 1: CACCCGUGCAAAAAUGCAGGGGUCUAAAACUGAGCGGAUAACCUCUCUAUGG
RNA 2: GGGAAUGGAUCCACAUCUACGAAUUCGUACCAUAGACGAGCGUUAUCCGCUCACCGAGAUCGGAAGAGCACACGU
B19: target 1 insA 3' of 12,insC 3' of 9 (mixed)
RNA 1: CACCCGUGCAAAAAUGCAGGGGUCUAAAACUGAGCGGAUAACCUCUCUAUGG
RNA 2: GGGAAUGGAUCCACAUCUACGAAUUCGUACCAUAGAGAGGAUUACUCCGCUCACCGAGAUCGGAAGAGCACACGU
B20: target 1 insC 3' of 20,insC 3' of 14 (mixed)
RNA 1: CACCCGUGCAAAAAUGCAGGGGUCUAAAACUGAGCGGAUAACCUCUCUAUGG
RNA 2: GGGAAUGGAUCCACAUCUACGAAUUCGUACCACUAGAGACGGUUAUCCGCUCACCGAGAUCGGAAGAGCACACGU
B21: target 1 insG 3' of 19,insG 3' of 19 (mixed)
RNA 1: CACCCGUGCAAAAAUGCAGGGGUCUAAAACUGAGCGGAUAACCUCUCUAUGG
RNA 2: GGGAAUGGAUCCACAUCUACGAAUUCGUACCAUGGAGAGAGGUUAUCCGCUCACCGAGAUCGGAAGAGCACACGU
B22: target 1 insC 3' of 15,insA 3' of 4 (mixed)
RNA 1: CACCCGUGCAAAAAUGCAGGGGUCUAAAACUGAGCGGAUAACCUCUCUAUGG
RNA 2: GGGAAUGGAUCCACAUCUACGAAUUCGUACCAUAGAGCAGGUUAUCCGCAUCACCGAGAUCGGAAGAGCACACGU
B23: target 1 C7G,A9C (mixed)
RNA 1: CACCCGUGCAAAAAUGCAGGGGUCUAAAACUGAGCGGAUAACCUCUCUAUGG
RNA 2: GGGAAUGGAUCCACAUCUACGAAUUCGUACCAUAGAGAGGUUCUGCGCUCACCGAGAUCGGAAGAGCACACGU
B24: target 1 complement block 2-9 (mixed)
RNA 1: CACCCGUGCAAAAAUGCAGGGGUCUAAAACUGAGCGGAUAACCUCUCUAUGG
RNA 2: GGGAAUGGAUCCACAUCUACGAAUUCGUACCAUAGAGAGGUUUAGGCGAGACCGAGAUCGGAAGAGCACACGU
B25: target 1 insG 3' of 21,insU 3' of 2 (mixed)
RNA 1: CACCCGUGCAAAAAUGCAGGGGUCUAAAACUGAGCGGAUAACCUCUCUAUGG
RNA 2: GGGAAUGGAUCCACAUCUACGAAUUCGUACCGAUAGAGAGGUUAUCCGCUCUACCGAGAUCGGAAGAGCACACGU
B26: target 1 insA 3' of 10,insA 3' of 2 (mixed)
RNA 1: CACCCGUGCAAAAAUGCAGGGGUCUAAAACUGAGCGGAUAACCUCUCUAUGG
RNA 2: GGGAAUGGAUCCACAUCUACGAAUUCGUACCAUAGAGAGGUUAAUCCGCUCAACCGAGAUCGGAAGAGCACACGU
B27: target 1 C2U,A16C (mixed)
RNA 1: CACCCGUGCAAAAAUGCAGGGGUCUAAAACUGAGCGGAUAACCUCUCUAUGG
RNA 2: GGGAAUGGAUCCACAUCUACGAAUUCGUACCAUAGCGAGGUUAUCCGCUUACCGAGAUCGGAAGAGCACACGU
B28: target 1 insA 3' of 15,insG 3' of 7 (mixed)
RNA 1: CACCCGUGCAAAAAUGCAGGGGUCUAAAACUGAGCGGAUAACCUCUCUAUGG
RNA 2: GGGAAUGGAUCCACAUCUACGAAUUCGUACCAUAGAGAAGGUUAUCGCGCUCACCGAGAUCGGAAGAGCACACGU

target: T1, EsCas13d, nuclease-dead; test: crRNA (strand 1, pre-loaded); Mg2+; 40 mM Tris-HCl pH 7.5, 150 mM NaCl, 6 mM MgCl2, 1 mM DTT, 0.1% Tween-20, 0.2 mg/ml BSA; 25 C; 10 min per concentration, then washed; settings: tags: His6-TwinStrep-SUMO cleaved; N-terminal SNAP kept (SNAP-Surface 488); label: 3' end held by stalled T7 RNA polymerase

Point of comparison: B8, Kd 12.1 ± 1.1 nM. Against it:
- B1 — 4.5-fold higher, 54 ± 6 nM
- B2 — within 1.5-fold, 9 ± 0.6 nM
- B3 — 2.8-fold higher, 34.4 ± 2.2 nM
- B4 — within error, 13 ± 1.1 nM
- B5 — 2.8-fold higher, 34 ± 4 nM
- B6 — 5.9-fold higher, 71 ± 10 nM
- B7 — within 1.5-fold, 9.41 ± 0.34 nM
- B9 — within 1.5-fold, 14.4 ± 1.2 nM
- B10 — within error, 12.6 ± 0.6 nM
- B11 — 4.7-fold higher, 57 ± 15 nM
- B12 — 2.2-fold lower, 5.49 ± 0.24 nM
- B13 — within 1.5-fold, 8.7 ± 0.7 nM
- B14 — 2.9-fold lower, 4.16 ± 0.27 nM
- B15 — within error, 13 ± 0.9 nM
- B16 — within error, 13.9 ± 0.8 nM
- B17 — within 1.5-fold, 9.4 ± 0.6 nM
- B18 — 6.9-fold higher, 83 ± 27 nM
- B19 — 3.3-fold higher, 40 ± 5 nM
- B20 — 3.9-fold lower, 3.1 ± 0.5 nM
- B21 — 4.6-fold higher, 56 ± 15 nM
- B22 — 1.9-fold lower, 6.5 ± 0.5 nM
- B23 — within 1.5-fold, 9.26 ± 0.33 nM
- B24 — 1.7-fold lower, 7.29 ± 0.23 nM
- B25 — 5.8-fold higher, 70 ± 9 nM
- B26 — within 1.5-fold, 14 ± 0.8 nM
- B27 — 4.6-fold higher, 56 ± 4 nM
- B28 — 2-fold lower, 6.15 ± 0.19 nM
